In a protein production outcome set (Wang et al. 2014):

Test: label from the status in PepcDB records

Row | Sequence | protein production
1 | MVEGLGRIGFGLFGLAVLIGITWLFSSNRRAIDWKLVATGLALQISFAALVLLVPGGRDVFDALGKGFVKVLSFVNEGSTFIFGNLMNIDSYGFIFAFQVLPTIIFFSALMGVLYHLGVMQMVVRAMAWAITKVMRVSGAETTSVCASVFIGQTEAPLTVRPYIPKMTQSELLTMMIGGMAHIAGGVLAAYVGMLGGSDPAQQAFYAKHLLAASIMAAPATLVVAKLLVPETGTPLTRGTVKMEVEKTTSNVIDAAAAGAGDGLRLALNIGAMLLAFIALIALINAPLTWLGEVTGATALLGRPTNLSTIFGYVLAPIAWVIGTPWVDATTVGSLIGQKVVINEFVAYSELSRIVKGEVRGVGLSAEGRLIATYALCGFANFSSIAIQIGGIGGLAPERRHDLANFGLRAVLGGSIATFMTATIAGVLSHFG | failed
2 | MDGHSKNHCSPVGRYFPMPLDRRFLPGWLAFLALLAICVFPLMAKAAGVPALVGRVNDYAGMISPQARSIIDQKLKALEAEDGTQVAVLTVPSLDGQPIEEFSIKVAEAWKIGQKGRDNGILFIVSKNDRAMRIEVGYGLEGRLTDLQAGRITRDVIKPAFKSGDYDKGFIDGVDAIVASVKGEYKAPKRKNDDGAPSPFLIFIILFVLFVASRFMRFFGGGGGPFGFGGPGGGFFPGGGFGGGGGSSDDGGFSGGGGDFGGGGASDNW | failed
3 | MRNIAVILAGGSGQRLGENIPKQFLKIAGKKVIEHTITVFQNHSLIDEIVVVVHPDYIRDVEDISLRNSFNKLKKILLGGKERYHSSLAAINAYDEEVNLLFHDSVRPLVNERIINDCIRALLTYNAVDVAIPTTDTIIQVDDNNEIVKIPSRILLRNGQTPQAFKRSVIKAAYEKALLDPLFKTTDDCGVVLKYLPDESIYVVNGEQFNMKLTYKEDIFLLDKLFQLRSIRNQPTLLEKSEMEELQGKVVVVFGGTYGIGQDICEICREYKTSLYVYSRSTGVDVSNSQSVRRVLSEIFDKEGRIDWIVNTAGILDKQPLANMSYEAVHQSIDVNYLGNIIVAKESFFYLKESKGSLLFFTSSSYTRGRALYSLYSSSKAAIVNFVQALSEEWFEYGIRVNCINPERTKTPMRIQNFGNEPEDTLLEPKVVAIVSVNTLLSEMTGEVVDVKRLEHHHHHH | failed
4 | VQLVRLLEEKIKSLQIEIENLRKELNYYKAEMEKMLSPPLIEAVVLDVLPDGRVLVRSSSGPNLVVNIASHIDQKLIKPGISVALNQRGSTILEVLPQKEDPIVKTMEIIERPN | not failed
5 | TSTFYELFPKTFPKKLPIWTIDQSRLRKEYRQLQAQHHPDMAQQGSEQSSTLNQAYHTLKDPLRRSQYMLKLLRNI | failed
6 | MRILSGMRPTGKLHIGHLVGALENWVKLQEEGNECFYFVADWHALTTHYDDVSKLKEYTRDLVRGFLACGIDPEKSVIFVQSGVKEHAELALLFSMIVSVSRLERVPTYKEIKSELNYKDLSTAGFLIYPVLQAADILIYKAEGVPVGEDQVYHIELTREIARRFNYLYDEVFPEPEAILSRVPKLPGTDGRKMSKSYGNIINLEISEKELEQTILRMMTDPARVRRSDPGNPENCPVWKYHQAFDISEEESKWVWEGCTTASIGCVDCKKLLLKNMKRKLAPIWENFRKIDEDPHYVDDVIMEGTKKAREVAAKTMEEVRRAMNLMF | not failed
7 | MESIGLVEVNSIARGIEAADAMLKAAQVDLLEAKPVCPGKYIVLICGDVAAVQSSVTAGKTMAAHSVLDDFILPNVHPQVLTAISAATPLTLIKALGIIETFSIASLIVAADTAAKTGQVDLVEIRIGMGIGGKSFVTLTGDVASVESSVAAGVMLASERGMLVDKVVIPSPHDHLKRCLC | not failed
8 | MKTIIRQPQLYRFLKYCNESNLDKTVLDCGAGGDLPPLSIFVEDGYKTYGIEISDLQLKKAENFSRENNFKLNISKGDIRKLPFKDESMSFVYSYGTIFHMRKNDVKEAIDEIKRVLKPGGLACINFLTTKDERYNKGEKIGEGEFLQLERGEKVIHSYVSLEEADKYFKDMKVLFKEDRVVERINDGLKIKQGYVDYIAEKFSKSIL | not failed
9 | MAYDNRAVVRKVLLITLLLNLFVMGLKAFVGYLTGSLSLLADALHSVTDSANNILGLFASSFSSPYPDREHPYGHHKFEAVGALGIAAFLGIACFEILQGAIERILKGGAPVRISPPELWLLLIVLGVNIFVAFYERNEGKRVGSQILIADATHTMSDVWVTISVIFGLIGVWLGYQWLDIVLAFPVALLVFWSGWSVLKENLPWLVDQMAIAPEAIHAIAVAVPGVINCHDIASRGVLGRQIFMEMHLIVDAPDVETAHRITEEVERRLEERFSPVRIIIHVEPPNYESEQISFETGSK | failed
10 | MGHHHHHHSHRNLDSRTFITIGDRNFEVEADDLVTISELGRGAYGVVEKVRHAQSGTIMAVKRIRATVNSQEQKRLLMDLDINMRTVDCFYTVTFYGALFREGDVWICMELMDTSLDKFYRKVLDKNMTIPEDILGEIAVSIVRALEHLHSKLSVIHRDVKPSNVLINKEGHVKMCDFGISGYLVDSVAKTMDAGCKPYMAPERINPELNQKGYNVKSDVWSLGITMIEMAILRFPYESWGTPFQQLKQVVEEPSPQLPADRFSPEFVDFTAQCLRKNPAERMSYLELMEHPFFTLHKTKKTDIAAFVKEILGEDS | failed
11 | MADWLIGIIMGAVEGLTEFLPVSSTGHMILTGHLLGFDDERAKVFEVVIQLGSILAVVVIFWKRLWSLVGIGKVTDGPSLNLLHIIIGMIPAGVLGVLFHSAIKEVLFGPGPVVISLVAGGILMIVAEKFSKPSTARTLDEITYKQAFTIGMFQCLALWPGFSRSGSTISGGLLARVSHTAAAEYTFILAVPMMVAASGLDLIKSWDILSAADIPLFATGFITAFVVAMLAIVSFLKLLSRVKLTPFAYYRFILAAVFYFFIM | failed
12 | MNNLFVYCEIEEGIVADVSLELLTKGRSLANELNCQLEAVVAGTGLKEIEKQILPYGVDKLHVFDAEGLYPYTSLPHTSILVNLFKEEQPQICLMGATVIGRDLGPRVSSALTSGLTADCTSLEIGDHEDKKEGKVYKNLLYQIRPAFGGNIVATIVNPEHRPQMATVREGVMKKEIVSPAYQGEVIRHDVKKYVADTDYVVKVIERH | not failed
13 | MLDRLRFPHPWLSLTLFVMWQFLSDGISGGSIVLGLILAWIIPLMTQGFWPDPPTLLKAWKTPAYLLRVLWDIVVASVDVARLILSPRAPRPMFICYTLELTDPLAISILASTISLTPGTVSADVSDDNTLLLIHALDAEDEQEVIDTIRNRYEKPLLEMFQ | failed
14 | MIYFCHAPNDRAIAEKIYFSLKQTGLTCWIPSQDIMAGQYYVEAIANAIEKSDIVVFIFSSHSNTSIQVIDELQKASSLNKTIIPFCVDRAMPSEPIEHYLSSPYKVDATIGLPDDNIAKLQNIIKQIYNQSSVHNANDINTVKDTFAPSNPLENNTNIIKDASDNNSQESIQFNGVINSANSQPPQNPNLPPQHQMNPNFNNTVNNMDRNMNYPIKQNVRPNPQVKSSNKIKIPLIIGGSIAGGIILLSILFMLGKNLLFSTLINSHRPSDNPVIGSNIRIDGSKYTEEEIIEFTKNAILELDRLQASREFYDTYAYNAPEYDLMRIQENVFFSLMDLDVVRFEEVAILGKNEKEHGIEYLLKVDFVCYADYEYTENNETVHRKGEALLYNNVVILETPNDGLKYLYMEGIFEDELNARNENLESSYREIAESGDVNTEDTIQTYLPDSTDEDTIMSVKDIVKKNDHKVVAVYVDVPGGQSQGSGFFIKDGVIVTNYHVIEGGKSAKILLSNGNYVDVEGVLYTDSDVDIAVLKLVNEVGIEPVTIGQARDSDKGSIAVAIGSPLGLFNTVSTGIISNFWEANGVNLIQISIPITHGNSGGALFNESGKLIGITSSGIGEANLNFAISSTHIIPICEDIKNIPYNQLNAVPLSSAGGNINSITRQAGSSNSNQSSSSGKSLLSSKYRFVNSDKPISNDATYTSDLQTIYDLALNKYYAKEDLYRDLDYAFDYILDYGTKYYLEYLEYILHETYIKEDVENFNKINESVLEVLNTTGEYIEFTADEIEIIGAGIKNDGTIDGIIVRALFYENSEPYVRSKFYFRANYDAWSYVDGFLYVGEVTEK | failed
15 | MDLRVLLSGLAYSTIFGLSFLFTKNALDYVTPLTFLSFRFIVAFLSYLLLLITGAVKLGKKPYWKLWKLVLFQPVLYFLFETYGLQRVNSSEAGMIIALIPIVVNLLAPFILKEKGDLLHYLLVGMGFLGVSLIVGFNITPGNIVGKVFMLLAVLSGAMYSVFSRKFSKEFTPTEITFFMMMTGAVFFTLLSLSTGDFRPVFNVDVVIGALYLGVLSSTVAFFLLNYAIRKLSPIFTTLFSNFTTVVSVIAGVVFRNETVGIQQIAGMGLIISSLIIMSLRRSYKRLSRAQKL | failed
16 | MRQVTVGGMRVDLVSEIASLAFDKSWLFANVTDAVIAENRSWLDHRYIEPATGRFILSHHSYLVRAPRWTAIVDTCCGNHKKRPRVPVWNDLNQPYLENMRALGVAPEEVDFVMCTHLHVDHVGWNTRLLDGRWVPTFPNARYLMGREEYRHFEAAHNAAPKSPVNHGSFEDSVLPVVAAGLAEFVETDHRLFEDRDAALRFAPAPGHTAGNMQIHLNGGHDHAVMSGDVIHHPIQCAAPWLSNAADVDPAAAVATRMALLEELADTPSYLLTGHFPAPTAGRVIRHGDTYRFRFED | failed
17 | MAVALLGNRDGQAFLATLFDLARRGHVTLRHDREDQAFGTTDVVRLETHPAPNDLSDFERRLVDTLGEYETLDDFWSDTRSFRSDVMSDVRGVLFERGWMENHTVRSGLLLGGALVALLGGFAAVVTGDSALRFYLLFGGMGVSLGGFIAAVRQYTWTEDGARRAMALRAYLDHEKSEIERLRETSPARAAERLVDALPWLLLHDEVSRAWIEETKEALDAADEVPELPDGFVSLVETEGSARAPVAAFLPVVTVMGAVESSSAGAVGAAGASGAAGAAGGGAGAAGAA | failed
18 | MSINLSKGDKIDLKKSNPGLSNILVGLGWDPVQQSGGGFFKSLFGGGQADIDCDASVFMLNQEGKLSGIKDLIYFGNLKSACKSVLHTGDNLTGEGTGDDEQILVNLDKVPSNIHKLLFVVNIYNCVDRKQHFGMIENAYIRVEDQGNKKEIAKYNLSDNYSEKTTLIVGAIYRKDGSWQFKAIGEGTKDAGLKEVMQNLDRIECAYGI | failed
19 | MKFSVIIPVYNASKFIDYCVESVLSQSYSDIEVILINDGSTDKSGEICEGFARKDNRVKVYHQENQGAAVARNHGIRKATGDYLLFPDSDDYYASSLGFEEINNQLEETKADVLIHDSFVERGNGTPDDLHSSLLREEVLKLEKIEFIEYLIKKDKLTRSAWTKVISRSFLSKNNILFPTVRQTEDTGFTAELVRLGNSFDWYEKQFYAYVKHDESVTAKRLPESIIHDSFSVIKTAVINGELIKDSRYREAYYSYLAYPYVVLIGQTKEAINRGVIKENTILNDLKQYSFLMKYNLNPKLKVIKHLYKLFGYLMIVFLLSVMMELTYRKQGV | failed
20 | MGSSHHHHHHSSGRENLYFQGVKSEDQLVHICSREEWRTAEREGSRVPATFRADGFVHLSTPAQVHLPANRLFAGRTDLVLLRLDPTALGAPVKWEPGVPADPASMLFPHLYGPLPVAAVTGVEEYRPDADGTFPARR | not failed
21 | MNLFKKIIFGAAVMGLMAAGDASAAGKIVIDGSTTVGPIAKAFAAYFHKKTGIDVTVSESGSGNGAKSLINKTCDIADMSRPMEPKEIAAAKANGVNPVEHVVALDGLSMIVHPSNPVAKLTTAQIHDIYLGKITNWKQVGGPNAQIVFVQRESNSGTQECFEKLVMKDDKIAPAAETAASNGAVKSRVASTPNAIGFVGLGFVDKSVKPLIVNGVKPSIATVRNGSYVLHRPLFMYTNGQPKGDVAKFINLPKTPDGKRMISELGFVNK | failed
22 | DDNERLSKVEKARQLREQVNDLFSRKFGEAIGMGFPVKVPYRKITINPGCVVVDGMPPGVSFKAPSYLEISSMRRILDSAEFIKFTVIRPFPGLVINNQLV | not failed
